{"source": "paper PMC5394233", "about": "“Structural and functional analysis of the human POT1-TPP1 telomeric complex” (Nature Communications, 2017)", "key": {"[1]": {"target": "T1, POT1C (Homo sapiens, UniProt Q9NUX5 330-634)", "T1 sequence": "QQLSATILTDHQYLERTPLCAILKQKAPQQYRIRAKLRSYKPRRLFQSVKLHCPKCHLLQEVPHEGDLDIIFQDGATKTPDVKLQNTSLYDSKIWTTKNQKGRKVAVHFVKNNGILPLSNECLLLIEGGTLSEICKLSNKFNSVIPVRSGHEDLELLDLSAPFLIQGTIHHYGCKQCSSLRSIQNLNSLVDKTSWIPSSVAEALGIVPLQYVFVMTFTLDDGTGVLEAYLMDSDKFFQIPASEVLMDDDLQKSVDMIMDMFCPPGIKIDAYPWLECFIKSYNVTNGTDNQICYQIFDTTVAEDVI", "experiment": "fluorescence polarization; FP: 20 mM Hepes pH 7.5, 100 mM KCl, 2 mM MgCl2, 1 mM EDTA, 2 mM DTT, 1 mg/ml BSA, 5% glycerol, 75 nM polyT50 competitor, 2.5 nM probe, room temperature 30 min", "conditions": "protein: recombinant; tags: N-terminal His6-pMocr, TEV-cleaved; label: 5' 6-FAM; single strand"}, "[2]": {"target": "flPOT1 Q623H;TPP1(87) (Homo sapiens;Homo sapiens, UniProt Q9NUX5;Q96AP0 1-634;1-458, Q623H|)", "sequence (Q9NUX5 whole entry Q623H, chain 1 of 2)": "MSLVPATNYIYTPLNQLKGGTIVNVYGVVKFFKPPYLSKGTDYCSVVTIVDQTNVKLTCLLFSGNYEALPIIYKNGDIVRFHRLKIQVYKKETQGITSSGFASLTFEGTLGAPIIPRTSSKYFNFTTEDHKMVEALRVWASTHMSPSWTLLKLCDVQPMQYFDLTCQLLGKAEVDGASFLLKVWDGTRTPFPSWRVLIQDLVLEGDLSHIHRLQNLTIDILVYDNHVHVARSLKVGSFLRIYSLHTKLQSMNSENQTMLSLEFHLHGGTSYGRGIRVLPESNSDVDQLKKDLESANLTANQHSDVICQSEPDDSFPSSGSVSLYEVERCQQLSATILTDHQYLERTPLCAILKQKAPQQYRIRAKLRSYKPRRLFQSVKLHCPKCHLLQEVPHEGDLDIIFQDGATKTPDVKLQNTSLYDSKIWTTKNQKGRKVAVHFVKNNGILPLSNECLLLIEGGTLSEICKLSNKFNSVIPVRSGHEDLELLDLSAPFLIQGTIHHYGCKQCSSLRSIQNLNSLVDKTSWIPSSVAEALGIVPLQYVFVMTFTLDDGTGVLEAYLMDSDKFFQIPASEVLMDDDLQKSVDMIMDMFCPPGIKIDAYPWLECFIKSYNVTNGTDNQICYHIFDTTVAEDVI", "sequence (Q96AP0 whole entry, chain 2 of 2)": "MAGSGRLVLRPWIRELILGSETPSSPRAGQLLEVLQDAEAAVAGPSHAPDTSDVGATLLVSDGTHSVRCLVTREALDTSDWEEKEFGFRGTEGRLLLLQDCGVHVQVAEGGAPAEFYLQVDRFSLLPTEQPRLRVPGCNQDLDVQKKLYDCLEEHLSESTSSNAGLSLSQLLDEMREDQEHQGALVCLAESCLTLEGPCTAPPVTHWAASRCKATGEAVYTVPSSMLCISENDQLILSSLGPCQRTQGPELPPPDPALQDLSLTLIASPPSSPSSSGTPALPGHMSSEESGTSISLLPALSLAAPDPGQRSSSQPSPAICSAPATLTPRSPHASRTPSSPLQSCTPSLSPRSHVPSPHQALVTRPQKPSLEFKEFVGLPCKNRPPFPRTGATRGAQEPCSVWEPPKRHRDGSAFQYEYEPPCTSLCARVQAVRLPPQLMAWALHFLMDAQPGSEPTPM", "experiment": "fluorescence polarization; FP: 20 mM Hepes pH 7.5, 100 mM KCl, 2 mM MgCl2, 1 mM EDTA, 2 mM DTT, 1 mg/ml BSA, 5% glycerol, 75 nM polyT50 competitor, 2.5 nM probe, room temperature 30 min", "conditions": "protein: recombinant;recombinant, tags: N-terminal His6-pMocr, TEV-cleaved;N-terminal His6-MBP, copies: 1;1, label: 5' 6-FAM, single strand"}, "[3]": {"target": "T2, flPOT1 P446Q (Homo sapiens, UniProt Q9NUX5 1-634, P446Q)", "T2 sequence": "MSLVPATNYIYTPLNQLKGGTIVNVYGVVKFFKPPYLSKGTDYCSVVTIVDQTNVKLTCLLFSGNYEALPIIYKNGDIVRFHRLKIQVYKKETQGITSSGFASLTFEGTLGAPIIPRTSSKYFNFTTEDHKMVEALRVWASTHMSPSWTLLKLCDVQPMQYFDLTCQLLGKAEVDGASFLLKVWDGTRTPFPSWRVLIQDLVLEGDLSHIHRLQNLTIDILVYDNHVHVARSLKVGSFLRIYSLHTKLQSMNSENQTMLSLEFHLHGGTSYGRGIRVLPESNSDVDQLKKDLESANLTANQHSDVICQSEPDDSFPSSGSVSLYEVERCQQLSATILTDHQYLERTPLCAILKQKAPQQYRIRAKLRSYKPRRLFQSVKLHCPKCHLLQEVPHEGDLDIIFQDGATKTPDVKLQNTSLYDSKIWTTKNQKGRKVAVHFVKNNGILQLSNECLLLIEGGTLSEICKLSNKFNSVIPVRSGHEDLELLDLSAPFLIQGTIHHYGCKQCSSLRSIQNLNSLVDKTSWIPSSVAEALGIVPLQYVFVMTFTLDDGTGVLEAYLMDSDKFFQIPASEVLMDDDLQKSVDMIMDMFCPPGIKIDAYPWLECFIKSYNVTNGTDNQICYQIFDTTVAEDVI", "experiment": "fluorescence polarization; FP: 20 mM Hepes pH 7.5, 100 mM KCl, 2 mM MgCl2, 1 mM EDTA, 2 mM DTT, 1 mg/ml BSA, 5% glycerol, 75 nM polyT50 competitor, 2.5 nM probe, room temperature 30 min", "conditions": "protein: recombinant; tags: N-terminal His6-pMocr, TEV-cleaved; label: 5' 6-FAM; single strand"}, "[4]": {"target": "flPOT1 P475L;TPP1(87) (Homo sapiens;Homo sapiens, UniProt Q9NUX5;Q96AP0 1-634;1-458, P475L|)", "sequence (Q9NUX5 whole entry P475L, chain 1 of 2)": "as the sequence (Q9NUX5 whole entry Q623H, chain 1 of 2) above, with P475L, H623Q counted along it", "sequence (Q96AP0 whole entry, chain 2 of 2)": "as the sequence (Q96AP0 whole entry, chain 2 of 2) above", "experiment": "fluorescence polarization; FP: 20 mM Hepes pH 7.5, 100 mM KCl, 2 mM MgCl2, 1 mM EDTA, 2 mM DTT, 1 mg/ml BSA, 5% glycerol, 75 nM polyT50 competitor, 2.5 nM probe, room temperature 30 min", "conditions": "protein: recombinant;recombinant, tags: N-terminal His6-pMocr, TEV-cleaved;N-terminal His6-MBP, copies: 1;1, label: 5' 6-FAM, single strand"}, "[5]": {"target": "flPOT1 WT;TPP1(87) (Homo sapiens;Homo sapiens, UniProt Q9NUX5;Q96AP0 1-634;1-458, |)", "sequence (Q9NUX5 whole entry, chain 1 of 2)": "as the sequence (Q9NUX5 whole entry Q623H, chain 1 of 2) above, with H623Q counted along it", "sequence (Q96AP0 whole entry, chain 2 of 2)": "as the sequence (Q96AP0 whole entry, chain 2 of 2) above", "experiment": "fluorescence polarization; FP: 20 mM Hepes pH 7.5, 100 mM KCl, 2 mM MgCl2, 1 mM EDTA, 2 mM DTT, 1 mg/ml BSA, 5% glycerol, 75 nM polyT50 competitor, 2.5 nM probe, room temperature 30 min", "conditions": "protein: recombinant;recombinant, tags: N-terminal His6-pMocr, TEV-cleaved;N-terminal His6-MBP, copies: 1;1, label: 5' 6-FAM, single strand"}, "[6]": {"target": "POT1C;TPP1(PBD) (Homo sapiens;Homo sapiens, UniProt Q9NUX5;Q96AP0 330-634;169-251, |)", "sequence (Q96AP0 169-251, one chain of several)": "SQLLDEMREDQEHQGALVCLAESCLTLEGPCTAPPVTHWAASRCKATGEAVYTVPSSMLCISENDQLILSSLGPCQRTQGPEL", "experiment": "fluorescence polarization; up to 5 uM protein; FP: 20 mM Hepes pH 7.5, 100 mM KCl, 2 mM MgCl2, 1 mM EDTA, 2 mM DTT, 1 mg/ml BSA, 5% glycerol, 75 nM polyT50 competitor, 2.5 nM probe, room temperature 30 min", "conditions": "protein: recombinant;recombinant; tags: N-terminal His6-pMocr, TEV-cleaved;N-terminal His6, TEV-cleaved; copies: 1;1; label: 5' 6-FAM; single strand"}, "[7]": {"target": "flPOT1 L343F;TPP1(87) (Homo sapiens;Homo sapiens, UniProt Q9NUX5;Q96AP0 1-634;1-458, L343F|)", "sequence (Q96AP0 whole entry, stated change not applied, one chain of several)": "as the sequence (Q96AP0 whole entry, chain 2 of 2) above", "experiment": "fluorescence polarization; wild-type affinity stated; FP: 20 mM Hepes pH 7.5, 100 mM KCl, 2 mM MgCl2, 1 mM EDTA, 2 mM DTT, 1 mg/ml BSA, 5% glycerol, 75 nM polyT50 competitor, 2.5 nM probe, room temperature 30 min", "conditions": "protein: recombinant;recombinant, tags: N-terminal His6-pMocr, TEV-cleaved;N-terminal His6-MBP, copies: 1;1, label: 5' 6-FAM, single strand"}, "[8]": {"target": "flPOT1 A532P;TPP1(87) (Homo sapiens;Homo sapiens, UniProt Q9NUX5;Q96AP0 1-634;1-458, A532P|)", "sequence (Q96AP0 whole entry, stated change not applied, one chain of several)": "as the sequence (Q96AP0 whole entry, chain 2 of 2) above", "experiment": "fluorescence polarization; wild-type affinity stated; FP: 20 mM Hepes pH 7.5, 100 mM KCl, 2 mM MgCl2, 1 mM EDTA, 2 mM DTT, 1 mg/ml BSA, 5% glycerol, 75 nM polyT50 competitor, 2.5 nM probe, room temperature 30 min", "conditions": "protein: recombinant;recombinant, tags: N-terminal His6-pMocr, TEV-cleaved;N-terminal His6-MBP, copies: 1;1, label: 5' 6-FAM, single strand"}, "[9]": {"target": "flPOT1 R477T;TPP1(87) (Homo sapiens;Homo sapiens, UniProt Q9NUX5;Q96AP0 1-634;1-458, R477T|)", "sequence (Q96AP0 whole entry, stated change not applied, one chain of several)": "as the sequence (Q96AP0 whole entry, chain 2 of 2) above", "experiment": "fluorescence polarization; wild-type affinity stated; FP: 20 mM Hepes pH 7.5, 100 mM KCl, 2 mM MgCl2, 1 mM EDTA, 2 mM DTT, 1 mg/ml BSA, 5% glycerol, 75 nM polyT50 competitor, 2.5 nM probe, room temperature 30 min", "conditions": "protein: recombinant;recombinant, tags: N-terminal His6-pMocr, TEV-cleaved;N-terminal His6-MBP, copies: 1;1, label: 5' 6-FAM, single strand"}}}
{"binder": "TTAGGGTTAGGGTTAGGG (ssDNA)", "note": "[telomeric 18mer (TTAGGG)3]", "values": [{"measurement": "binding result", "setting": "[1]", "result": "no binding"}, {"measurement": "Kd", "setting": "[2]", "result": "8.9 ± 1", "unit": "nM"}, {"measurement": "Kd", "setting": "[3]", "result": "~20", "unit": "nM"}, {"measurement": "Kd", "setting": "[4]", "result": "10.7 ± 1.4", "unit": "nM"}, {"measurement": "Kd", "setting": "[5]", "result": "~5.8", "unit": "nM"}, {"measurement": "binding result", "setting": "[6]", "result": "no binding"}, {"measurement": "binding result", "setting": "[7]", "result": "binds"}, {"measurement": "binding result", "setting": "[8]", "result": "binds"}, {"measurement": "binding result", "setting": "[9]", "result": "binds"}]}
